{"source": "patent US9427478B2", "about": "“Enzymatic conjugation of polypeptides” (Innate Pharma, priority 2013, dated 2016)", "key": {"[1]": {"experiment": "SE-HPLC, physical stability after freeze/thaw and shaking", "assay_type": "physicochemical", "settings": "physical stability study", "procedure": "Physical stability was measured after a Freeze/Thaw (F/T) cycle in which ADC products are frozen at least 2 hours at −20° C. and thawed at least 1 hour at room temperature three times and tested 24 h after the last Freeze/Thaw cycle, and after shaking in which ADC products samples are shaken with a “vortex” 3 min at 3000 rpm and tested 24 h after this shaking stress application. […] Measurements were also made by SE-HPLC, performed with the Acquity UPLC from WATERS® with a BEH200 SEC 1.7 μm column. SE-HPLC is used to evaluate soluble and covalent/non-covalent aggregates levels and the proteic fragments that could be generated."}, "[2]": {"experiment": "SE-HPLC, chemical stability on storage", "assay_type": "physicochemical", "experimental": "A chemical stability study monitored the molecular integrity of the ADC products that could be impacted following 3 months storage at +40° C. (thermal stress accelerated degradation storage conditions). Samples stored at +40° C. were compared to samples stored at +5° C., as assessed by SE-HPLC, performed with the Acquity UPLC from WATERS® with a BEH200 SEC 1.7 μm column."}}}
{"sequence": "ADCETRIS ®", "values": [{"measurement": "fragments, in words", "setting": "[1]", "result": "significant levels of fragments"}, {"measurement": "fragments, in words", "setting": "[2]; chemical stability at 5° C.", "result": "significant levels of fragments"}, {"measurement": "Fragments %", "setting": "[2]; storage at 5° C., T1 W (1 week)", "result": 1.77, "unit": "%"}]}
